Data published in paper PMC5360526 (Hepatology (Baltimore, Md.), 2017).

Molecular target: Recombinant human MATα1 (human, UniProt Q00266 1-395)
Experiment: pull-down

Recombinant human MATα1, sequence (Q00266 whole entry): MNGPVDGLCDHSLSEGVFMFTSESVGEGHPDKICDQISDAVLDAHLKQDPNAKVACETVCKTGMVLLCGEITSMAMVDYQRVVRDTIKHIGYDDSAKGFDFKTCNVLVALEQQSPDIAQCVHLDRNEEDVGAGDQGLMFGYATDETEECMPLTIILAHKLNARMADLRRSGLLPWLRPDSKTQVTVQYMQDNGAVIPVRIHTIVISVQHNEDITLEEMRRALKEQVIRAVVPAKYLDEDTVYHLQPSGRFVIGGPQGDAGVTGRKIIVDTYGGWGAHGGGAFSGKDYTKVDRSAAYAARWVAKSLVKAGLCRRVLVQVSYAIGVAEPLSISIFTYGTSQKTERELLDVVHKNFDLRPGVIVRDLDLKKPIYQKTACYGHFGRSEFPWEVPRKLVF

binding result: binds
B1: Recombinant human PHB1 (natural protein, UniProt P35232 1-272, looked up)
chain: MAAKVFESIGKFGLALAVAGGVVNSALYNVDAGHRAVIFDRFRGVQDIVVGEGTHFLIPWVQKPIIFDCRSRPRNVPVITGSKDLQNVNITLRILFRPVASQLPRIFTSIGEDYDERVLPSITTEILKSVVARFDAGELITQRELVSRQVSDDLTERAATFGLILDDVSLTHLTFGKEFTEAVEAKQVAQQEAERARFVVEKAEQQKKAAIISAEGDSKAAELIANSLATAGDGLIELRKLEAAEDIAYQLSRSRNITYLPAGQSVLLQLPQ
